Reference: patent US9833497B2, “Human originated EGF domain proteins and use of the same” (CHENGDU SOURCEBIO LIMITED-LIABILITY COMPANY, priority 2013, dated 2017)

B1: PRT499 (protein, listed as Homo sapiens)
chain: CNCHNKAKDCYYDESVAKQKKSLNTAGQFRGGGVCINCLQNTMGINCETCIDGYYRPHKVSPYEDEPCRP
B2: PRT551 (protein, listed as Homo sapiens)
chain: CNCYGHATDCYYDPEVDRRRASQSLDGTYQGGGVCIDCQHHTTGVNCERCLPGFYRSPNHPLDSPHVCRR
B3: PRT588 (protein, listed as Homo sapiens)
chain: CDCNGHSETCHFDPAVFAASQGAYGGVCDNCRDHTEGKNCERCQLHYFRNRRPGASIQETCIS
B4: PRT480 (protein, listed as Homo sapiens)
chain: VCSLHLCRNNGRCIRKMWNAPSYLHLNPASYHIEASEDGEFTVKGKASDTDLAVMADTFSCHCYQGYEGADCR
B5: PRT529 (protein, listed as Homo sapiens)
chain: CNCHGHASNCYYDPDVERQQASLNTQGIYAGGGVCINCQHNTAGVNCEQCAKGYYRPYGVPVDAPDGCIP
B6: PRT477 (protein, listed as Homo sapiens)
chain: LCSQALCSGHGRCVRRTSHPKALLLLNPASFSIQLTPGGGPLSLRGALSLGDQAQMAVEFKCRCYPGWQAPWCE
B7: PRT587 (protein, listed as Homo sapiens)
chain: CFCHGHADRCAPKPGASAGPSTAVQVHDVCVCQHNTAGPNCERCAPFYNNRPWRPAEGQDAHECQR
B8: PRT1182 (protein, listed as Homo sapiens)
chain: PREPCPGGACRVIDGCGSDAGPGMPGTAASGVCGPHGRCVSQPGGNFSCICDSGFTGTYCH
B9: PRT593 (protein, listed as Homo sapiens)
chain: CFCNGHASECRPMQKMRGDVFSPPGMVHGQCVCQHNTDGPNCERCKDFFQDAPWRPAADLQDNACRS
B10: PRT514 (protein, listed as Homo sapiens)
chain: CNCHGKAEECYYDENVARRNLSLNIRGKYIGGGVCINCTQNTAGINCETCTDGFFRPKGVSPNYPRPCQP
B11: PRT1459 (protein, listed as Homo sapiens)
chain: CQCNSHSKSCHYNISVDPFPFEHFRGGGGVCDDCEHNTTGRNCELCKDYFFRQVGADPSAIDVCKP

Legend:
Type in all cases: cell-based
Aeromonas hydrophila = assay: MIC against Gram-negative bacteria: Aeromonas hydrophila; settings: 5×10^5 CFU/mL
Method: (§1) 1. Gram-negative bacteria, such as E. coli BL21, Pseudomonas aeruginosa, Klebsiella pneumonia, Enterobacter cloacae, Aeromonas hydrophila, Citrobacter diversus, Moraxella catarrhalis, Proteus mirabilis, Proteus vulgaris, Serratia marcescens, etc were streaked on solid LB medium and cultured respectively. Then, typical clones were picked, inoculated into common liquid LB medium respectively, and cultured at 37° C. with shaking at 185 rpm until the McFarland specific turbidity was 0.5. The bacterial culture of each of Gram-negative bacteria was centrifuged at 4000×g for 3 min, the supernatant was discarded, and the thalli were resuspended with fresh LB medium.
(§2) 2. The above-mentioned bacterial suspensions were diluted and inoculated into 96-well plates with the final concentration of the bacterial suspension being 5×10^5 CFU/mL per well.
(§3) 3. Each of the purified human-originated EGF domain proteins (PRT1 to PRT1498 in Table 1) was added to each of the above wells and subjected to two-fold serial dilution in concentration. Three parallel wells were set up for each concentration in the gradient.
(§4) 4. The above-mentioned 96-well plates were placed and cultured at 37° C. in shaking incubator shaking at 175 rpm. […] The minimal inhibitory concentration MIC is defined as the lowest concentration of the recombinant protein at which there is no growth of the bacteria.

Klebsiella pneumonia = assay: MIC against Gram-negative bacteria: Klebsiella pneumonia; settings: 5×10^5 CFU/mL
Method: as §1, §2, §3, §4

Serratia marcescens = assay: MIC against Gram-negative bacteria: Serratia marcescens; settings: 5×10^5 CFU/mL
Method: as §1, §2, §3, §4

Pseudomonas aeruginosa = assay: MIC against Gram-negative bacteria: Pseudomonas aeruginosa; settings: 5×10^5 CFU/mL
Method: as §1, §2, §3, §4

Proteus vulgaris = assay: MIC against Gram-negative bacteria: Proteus vulgaris; settings: 5×10^5 CFU/mL
Method: as §1, §2, §3, §4

Enterobacter cloacae = assay: MIC against Gram-negative bacteria: Enterobacter cloacae; settings: 5×10^5 CFU/mL
Method: as §1, §2, §3, §4

Citrobacter diversus = assay: MIC against Gram-negative bacteria: Citrobacter diversus; settings: 5×10^5 CFU/mL
Method: as §1, §2, §3, §4

E. coli BL21 = assay: MIC against Gram-negative bacteria: E. coli BL21; settings: 5×10^5 CFU/mL
Method: as §1, §2, §3, §4

E. coli DH5α = assay: Antibacterial activity: MIC and growth curve against E. coli DH5α in 96-well plate; settings: minimal inhibitory concentration against E. coli DH5α; 96-well plate, 5×10^5 CFU/mL, 37° C., judged after 8 h
Method: 1. E. coli DH5α was exemplified. E. coli DH5α was streaked and cultured on LB solid medium. Then, a typical clone was picked and inoculated into common LB liquid medium, cultured at 37° C. with shaking at 185 rpm until the logarithmic growth phase was reached (OD600 of about 0.5). The bacterial culture was centrifuged at 4000×g for 3 min, the supernatant was discarded, and the thalli were resuspended with fresh LB medium.
2. The above-mentioned bacterial suspension was diluted and inoculated into a 96-well plate with the total volume of 100 μL per well and a bacterial count of 5×10^5 CFU/mL.
3. The recombinant protein hF VII-EGF1 was added to the above-mentioned wells with the final protein concentration in the well of the highest protein concentration being 50 μg/mL. Basing on this final concentration, a two-fold serial dilution was performed till a protein concentration gradient consisting of 50, 25, and 12.5 μg/mL was set up. Three parallel wells were set up for each concentration in the gradient.
as §4, with “plate was” for “plates were”, “rpm. Samples were taken every 30 min, the absorbance values were determined at 600 nm wavelength under a ultra violet spectrophotometer, and an inhibition curve was plotted.” for “rpm.”
According to the experimental procedures in Example 14, the minimal inhibitory concentrations (MIC, μg/mL) of the other human-originated EGF domain proteins (PRT2 to PRT1498 in Table 1) for E. coli DH5α were determined.

Proteus mirabilis = assay: MIC against Gram-negative bacteria: Proteus mirabilis; settings: 5×10^5 CFU/mL
Method: as §1, §2, §3, §4

Moraxella catarrhalis = assay: MIC against Gram-negative bacteria: Moraxella catarrhalis; settings: 5×10^5 CFU/mL
Method: as §1, §2, §3, §4

[1] = 10 h cultivation at 37° C., two-fold serial dilution

Molecule | MIC against A. hydrophila (Aeromonas hydrophila; 96-well plate, 37° C., 10 h) [µg/mL] | MIC against K. pneumonia (Klebsiella pneumonia; 96-well plate, 37° C., 10 h) [µg/mL] | MIC against S. marcescens (Serratia marcescens; 96-well plate, 37° C., 10 h) [µg/mL] | MIC against P. aeruginosa (Pseudomonas aeruginosa; 96-well plate, 37° C., 10 h) [µg/mL] | MIC against P. vulgaris (Proteus vulgaris; 96-well plate, 37° C., 10 h) [µg/mL] | MIC against E. cloacae (Enterobacter cloacae; 96-well plate, 37° C., 10 h) [µg/mL] | MIC against C. diversus (Citrobacter diversus; 96-well plate, 37° C., 10 h) [µg/mL] | MIC against E. coli BL21 (E. coli BL21; 96-well plate, 37° C., 10 h) [µg/mL] | MIC (E. coli DH5α) [µg/mL] | MIC against P. mirabilis (Proteus mirabilis; 96-well plate, 37° C., 10 h) [µg/mL] | MIC against M. catarrhalis (Moraxella catarrhalis; 96-well plate, 37° C., 10 h) [µg/mL] | other results
B1 | 25 | 25 | 12.5 | 100 | 25 | 12.5 | 12.5 | 25 | 12.5 | 50 | 25 | 
B2 | 25 | 25 | 50 | 50 | 25 | 12.5 | 50 | 25 | 12.5 | 12.5 | 25 | 
B3 | 25 | 25 | 12.5 | 50 | 25 | 12.5 | 12.5 | 25 | 12.5 | 12.5 | 25 | 
B4 | 25 | 25 | 50 | 50 | 25 | 12.5 | 50 | 25 | 12.5 | 12.5 | 25 | 
B5 | 12.5 | 50 | 25 | 25 | 12.5 | 25 | 25 | 12.5 | 25 | 25 | 50 | 
B6 | 12.5 | 50 | 25 | 12.5 | 12.5 | 25 | 25 | 50 | 12.5 | 25 | 50 | 
B7 | 50 | 12.5 | 25 | 25 | 50 | 25 | 25 | 50 | 25 | 25 | 12.5 | 
B8 |  |  |  |  |  |  |  |  | 12.5 |  |  | MIC A. hydrophila (Aeromonas hydrophila; [1]): 12.5 µg/mL; MIC K. pneumonia (Klebsiella pneumonia; [1]): 25 µg/mL; MIC S. marcescens (Serratia marcescens; [1]): 25 µg/mL; MIC P. aeruginosa (Pseudomonas aeruginosa; [1]): 50 µg/mL; MIC P. vulgaris (Proteus vulgaris; [1]): 12.5 µg/mL; MIC E. cloacae (Enterobacter cloacae; [1]): 25 µg/mL; MIC C. diversus (Citrobacter diversus; [1]): 50 µg/mL; MIC E. coli BL21 (E. coli BL21; [1]): 25 µg/mL; MIC P. mirabilis (Proteus mirabilis; [1]): 50 µg/mL; MIC M. catarrhalis (Moraxella catarrhalis; [1]): 12.5 µg/mL
B9 | 50 | 12.5 | 25 | 25 | 50 | 25 | 25 | 50 | 25 | 25 | 12.5 | 
B10 | 25 | 25 | 12.5 | 50 | 25 | 12.5 | 12.5 | 12.5 | 50 | 12.5 | 25 | 
B11 |  |  |  |  |  |  |  |  | 12.5 |  |  | MIC against A. hydrophila (Aeromonas hydrophila; Aeromonas hydrophila, 10 h cultivation at 37° C.): 25 µg/mL; MIC against K. pneumonia (Klebsiella pneumonia; Klebsiella pneumonia, 10 h cultivation at 37° C.): 25 µg/mL; MIC against S. marcescens (Serratia marcescens; Serratia marcescens, 10 h cultivation at 37° C.): 25 µg/mL; MIC against P. aeruginosa (Pseudomonas aeruginosa; Pseudomonas aeruginosa, 10 h cultivation at 37° C.): 25 µg/mL; MIC against P. vulgaris (Proteus vulgaris; Proteus vulgaris, 10 h cultivation at 37° C.): 50 µg/mL; MIC against E. cloacae (Enterobacter cloacae; Enterobacter cloacae, 10 h cultivation at 37° C.): 12.5 µg/mL; MIC against C. diversus (Citrobacter diversus; Citrobacter diversus, 10 h cultivation at 37° C.): 50 µg/mL; MIC against E. coli BL21 (E. coli BL21; E. coli BL21, 10 h cultivation at 37° C.): 50 µg/mL; MIC against P. mirabilis (Proteus mirabilis; Proteus mirabilis, 10 h cultivation at 37° C.): 25 µg/mL; MIC against M. catarrhalis (Moraxella catarrhalis; Moraxella catarrhalis, 10 h cultivation at 37° C.): 12.5 µg/mL
